Source: PMC9558310 (ACS Chemical Biology, 2019)

Molecular target: the molecule itself
Assay: SEC

| Protein | binding result | stoichiometry N |
| --- | --- | --- |
| human PLPBP R41Q mutant (natural protein, fully saturated with PLP after purification) not shown | binds | – |
| Strep-tag recombinant human PLPBP (natural protein, pyridoxal 5'-phosphate bound at Lys47 (internal aldimine)) not shown | – | 2 |
| tag-free recombinant human pyridoxal 5'-phosphate-binding protein (PLPBP) (natural protein, pyridoxal 5'-phosphate bound at Lys47 (internal aldimine)) not shown | – | 2 |
